The record followed here is the supplement of paper PMC9112550, “Optimization of the antimicrobial peptide Bac7 by deep mutational scanning” (BMC Biology, 2022).

The test system of this data set is Escherichia coli TOP10. Kind of data set: shrunken log2 fold change of peptide-encoding DNA abundance (4.5 h post-induction vs induction); higher = less antimicrobial activity (less host growth inhibition). The following applies: time post-induction: 4.5 h; library: site-saturation at positions 5, 18, 19, 20.
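Also: peptides expressed intracellularly from a pBAD plasmid library in pooled LB shake-flask culture, induced with 0.3% L-arabinose, DNA abundance read by NGS, three biological replicates, DESeq2 with apeglm shrinkage.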

Turning to RRIRIRPPRLPRPRPRPWVHPRP, the “shrunken log2 fold change” value is -0.0605.
Regarding RRIRRRPPRLPRPRPRPLMAPRP, the “shrunken log2 fold change” value was 0.312.
As to RRIRVRPPRLPRPRPRPAYLPRP, the “shrunken log2 fold change” value stood at 0.0246.
As to RRIRPRPPRLPRPRPRPGHTPRP, the “shrunken log2 fold change” value is 0.179.
Then RRIRYRPPRLPRPRPRPVVMPRP, with 0.00213.
With RRIRWRPPRLPRPRPRPCGMPRP, the “shrunken log2 fold change” value came to 0.259.
The result for RRIRSRPPRLPRPRPRPSKPPRP reads -0.432; that for RRIRYRPPRLPRPRPRPLHCPRP, -0.724.
On to RRIRDRPPRLPRPRPRPTDNPRP, for which the “shrunken log2 fold change” value is -0.5.
For the sequence RRIRVRPPRLPRPRPRPEHKPRP, the “shrunken log2 fold change” value was -0.0815.
In the case of RRIRGRPPRLPRPRPRPRCFPRP, the “shrunken log2 fold change” value is 0.698.
For the sequence RRIRTRPPRLPRPRPRPGSFPRP, the “shrunken log2 fold change” value amounted to 0.00381.
In the case of RRIRQRPPRLPRPRPRPLLQPRP, the “shrunken log2 fold change” value is 0.212.
Then RRIRCRPPRLPRPRPRPETIPRP, with -0.0356.
RRIRLRPPRLPRPRPRPFPQPRP: the “shrunken log2 fold change” value was -0.0558.
Regarding RRIRFRPPRLPRPRPRPHCSPRP, the “shrunken log2 fold change” value came out at 0.0308.
RRIRGRPPRLPRPRPRPRTFPRP: the “shrunken log2 fold change” value worked out at 1.1.
As to RRIRKRPPRLPRPRPRPCAPPRP, the “shrunken log2 fold change” value came out at 0.436.
As to RRIRKRPPRLPRPRPRPLYPPRP, the “shrunken log2 fold change” value is -0.177.
The result for RRIRMRPPRLPRPRPRPKKEPRP reads -0.0374.
Then RRIRIRPPRLPRPRPRPGNEPRP, with -0.0358; and RRIRERPPRLPRPRPRPIPVPRP, with -0.217; and RRIRIRPPRLPRPRPRPPDDPRP, with 0.494.
As to RRIRDRPPRLPRPRPRPIYMPRP, the “shrunken log2 fold change” value is -0.106.
Then RRIRYRPPRLPRPRPRPIDRPRP, with -0.017; and RRIRCRPPRLPRPRPRPQCEPRP, with -0.128; and RRIRMRPPRLPRPRPRPSQDPRP, with 0.224.
Consider RRIRWRPPRLPRPRPRPVTPPRP, for which the “shrunken log2 fold change” value was determined as 0.666.
For RRIRYRPPRLPRPRPRPAMWPRP, the “shrunken log2 fold change” value was -0.0439.
The result for RRIRARPPRLPRPRPRPDEGPRP reads 0.37; that for RRIRYRPPRLPRPRPRPNIGPRP, -0.105; that for RRIRKRPPRLPRPRPRPFACPRP, -0.0138.
Regarding RRIRLRPPRLPRPRPRPYVFPRP, the “shrunken log2 fold change” value was -0.515.
For the sequence RRIRLRPPRLPRPRPRPNVEPRP, the “shrunken log2 fold change” value was -0.211.
With RRIRARPPRLPRPRPRPLTTPRP, the “shrunken log2 fold change” value came to 0.463.
With RRIRGRPPRLPRPRPRPPLMPRP, the “shrunken log2 fold change” value was determined as 0.717.
For the sequence RRIRVRPPRLPRPRPRPVHIPRP, the “shrunken log2 fold change” value is -0.174.
As to RRIRKRPPRLPRPRPRPDSMPRP, the “shrunken log2 fold change” value came to 0.0692.
In the case of RRIRLRPPRLPRPRPRPIDTPRP, the “shrunken log2 fold change” value was 0.115.
For the sequence RRIRDRPPRLPRPRPRPPVSPRP, the “shrunken log2 fold change” value stood at 0.0155.
Then RRIRIRPPRLPRPRPRPKACPRP, with 0.0544; and RRIRFRPPRLPRPRPRPAKGPRP, with 0.141.
RRIRERPPRLPRPRPRPQTRPRP: the “shrunken log2 fold change” value was 0.0866.
The result for RRIRDRPPRLPRPRPRPSRHPRP reads 0.0369; that for RRIRQRPPRLPRPRPRPWTFPRP, -0.0125; that for RRIRHRPPRLPRPRPRPHRMPRP, -0.46.
On to RRIRVRPPRLPRPRPRPPYQPRP, for which the “shrunken log2 fold change” value was -0.3.
As for RRIRPRPPRLPRPRPRPVIWPRP, the “shrunken log2 fold change” value is -0.0495.
With RRIRVRPPRLPRPRPRPMAPPRP, the “shrunken log2 fold change” value was found to be 0.0351.
On to RRIRDRPPRLPRPRPRPHDCPRP, for which the “shrunken log2 fold change” value is -0.0662.
In the case of RRIRIRPPRLPRPRPRPDSQPRP, the “shrunken log2 fold change” value was -0.0342.
Consider RRIRMRPPRLPRPRPRPYRLPRP, for which the “shrunken log2 fold change” value is -0.0977.
Consider RRIRNRPPRLPRPRPRPQTAPRP, for which the “shrunken log2 fold change” value was -0.0947.
On to RRIRPRPPRLPRPRPRPNRRPRP, for which the “shrunken log2 fold change” value is -0.0942.
RRIRNRPPRLPRPRPRPMWWPRP: the “shrunken log2 fold change” value is -0.0071.
Regarding RRIRGRPPRLPRPRPRPKKFPRP, the “shrunken log2 fold change” value is 0.582.
For the sequence RRIRHRPPRLPRPRPRPPSSPRP, the “shrunken log2 fold change” value was -0.00863.
The result for RRIRFRPPRLPRPRPRPKVMPRP reads -0.178; that for RRIRERPPRLPRPRPRPRHKPRP, -0.0631; that for RRIRRRPPRLPRPRPRPRNSPRP, -0.0834.
Take RRIRGRPPRLPRPRPRPKGFPRP: the “shrunken log2 fold change” value is -0.0463.
With RRIRRRPPRLPRPRPRPGNWPRP, the “shrunken log2 fold change” value was 0.393.
The result for RRIRCRPPRLPRPRPRPNTCPRP reads -0.463.
For the sequence RRIRQRPPRLPRPRPRPHHLPRP, the “shrunken log2 fold change” value is -0.122.
Then RRIRSRPPRLPRPRPRPGMIPRP, with -0.296; and RRIRPRPPRLPRPRPRPCHWPRP, with 0.0406; and RRIRPRPPRLPRPRPRPSRAPRP, with 0.11.
The result for RRIRVRPPRLPRPRPRPEVGPRP reads 0.175; that for RRIRYRPPRLPRPRPRPKNKPRP, -0.444; that for RRIRARPPRLPRPRPRPRGKPRP, 0.376.
Then RRIRYRPPRLPRPRPRPFMFPRP, with -0.861.
With RRIRIRPPRLPRPRPRPWWFPRP, the “shrunken log2 fold change” value is -0.0772.
As to RRIRFRPPRLPRPRPRPHQGPRP, the “shrunken log2 fold change” value is -0.0419.
Regarding RRIRHRPPRLPRPRPRPKRQPRP, the “shrunken log2 fold change” value was -0.0409.
Turning to RRIRWRPPRLPRPRPRPYMTPRP, the “shrunken log2 fold change” value was -0.877.
Regarding RRIRWRPPRLPRPRPRPCECPRP, the “shrunken log2 fold change” value is -0.151.
Take RRIRMRPPRLPRPRPRPGHMPRP: the “shrunken log2 fold change” value is -0.203.
Then RRIRPRPPRLPRPRPRPANQPRP, with 0.0414.
Turning to RRIRIRPPRLPRPRPRPCKRPRP, the “shrunken log2 fold change” value stood at 0.0279.
Turning to RRIRVRPPRLPRPRPRPQVTPRP, the “shrunken log2 fold change” value was -0.425.
Consider RRIRMRPPRLPRPRPRPEDLPRP, for which the “shrunken log2 fold change” value stood at 4.64.
Then RRIRHRPPRLPRPRPRPAVVPRP, with -0.182; and RRIRGRPPRLPRPRPRPRNCPRP, with 0.0949; and RRIRDRPPRLPRPRPRPPYCPRP, with -0.0939.
RRIRERPPRLPRPRPRPVQSPRP: the “shrunken log2 fold change” value is -0.015.
RRIRSRPPRLPRPRPRPTLLPRP: the “shrunken log2 fold change” value amounted to 0.227.
Turning to RRIRCRPPRLPRPRPRPKAEPRP, the “shrunken log2 fold change” value was 0.173.
The result for RRIRFRPPRLPRPRPRPETPPRP reads 0.752; that for RRIRGRPPRLPRPRPRPQAMPRP, -0.0164; that for RRIRVRPPRLPRPRPRPPVCPRP, 0.191.
Turning to RRIRHRPPRLPRPRPRPWQNPRP, the “shrunken log2 fold change” value is -0.169.
